The supplement of paper PMC9170038

Key:
MS2 coat protein [1] = test: apparent KD of MS2 coat protein, switch ON state; designed switch direction (-1 OFF switch, 1 ON switch): 1; higher = weaker reporter binding; conditions: FMN input: 0 or 200 uM; Eterna round: R93 (includes R88 designs)
Procedure, shortened: (§1)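 Normalised binding curves from single clusters were fitted, and the median fit for each design is given as apparent KD. The clusters held designed RNA switches transcribed on-chip from Illumina sequencing clusters. These were titrated with SNAP-549-labelled MS2 coat protein (twofold steps from 0.7 or 1.5 nM to 3 µM, 0.8–1.5 h to 10–20 min per step) in 100 mM Tris-HCl pH 7.5, 80 mM KCl, 4 mM MgCl2, without or with constant ligand.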

MS2 coat protein [2] = test: apparent KD of MS2 coat protein, switch OFF state (with FMN for OFF switches, without FMN for ON switches); designed switch direction (-1 OFF switch, 1 ON switch): 1; higher = weaker reporter binding; conditions: FMN input: 0 or 200 uM; Eterna round: R93 (includes R88 designs)
Procedure, shortened: as §1

Sequence	apparent KD of MS2 coat protein (MS2 coat protein [1]) [nM]	apparent KD of MS2 coat protein (MS2 coat protein [2]) [nM]
CGGAGACAUGAGGAUCACCCAUGUGAGAAGAGGCGAGGAUAUCGAAAAAAAAAAAAAAAACGAGAAGGCGCGAGAU [salish99-SS1-013]	34	36.2
AACUAACAUGAGGAUCACCCAUGUAUUCAAACAUGAGGAUAUAUAACACAUCAUCGACGGAUAGAAGGCAUAAAUA [JR_SS001_Sub1206]	92	86.6
AAGAAACAUGAGGAUCACCCAUGUAGAAAUAUGGGAGGAUAUACAAGGACGUAAGUCAAGGUAGAAGGCCUAAGAA [Mat - Same State 1 - Meechl mod - D135]	26	97
AGGAAACAUGAGGAUCACCCAUGUAAAAAUAUGGGAGGAUAUACGAAGAAAAAAAAAAAAGUAGAAGGCCUAAAAG [Garnet 11]	90.7	345
AGAAAUAAAUGAGAGGAUAUCCAAAAGAAAACAUGAGGAUCACCCAUGUAAAAGAAAAUAAAAUGGGAGAAGGCUCAAAAUAAAG [80%, More Helter Skelter 2]	23.5	58.5
AAUAAACAUGAGGAUCACCCAUGUUUUAAUAGUUGAGGAUAUAAGGGUGAAAAUAGCAUAUUAGAAGGCGAGUGUA [SameState1 Malc#14]	32.7	31.7
GCCUAACAUGAGGAUCACCCAUGUAGUGGGUUGUUAGGAUAUGGACCACAAAACGCGGUACCAGAAGGAAUAGAAA [Atbima]	393	538
AACAAUCUAUCUGAGGAUAUCAUGUCAAAGACAUGAGGAUCACCCAUGUAGCAGGAAACUGCUUAUGAGAAGGCAGAUAGAUUGA [SS2: 1114]	69.4	450
AAAGACAUGGUGUAGGAUAUAUUAAUAGUCACAUGAGGAUCACCCAUGUUCAGAUAUCUGAACGAGUAGAAGGACGAUGAAAAAA [SameState2 Malc#4]	251	130
AUAACACAUGAGGAUCACCCAUGUAGAAACAAGUCAGGAUAUCCGAUCCACAUGUGAAAAGGAGAAGGGACACUAA [SS 1 Tesla 6]	37.4	146
AGGAAACAUGAGGAUCACCCAUGUAAAAAUAUGGGAGGAUAUACUAGAAGAAACAAAAUAGUAGAAGGCCUAAAAA [75%, Ex sub1, 26]	17.4	47.4
AAGAAACAUGAGGAUCACCCAUGUGAGAAAAACACAGGAUAUGCAAAAGAAAGAAAGAAAGCAGAAGGGUGAAGAA [Mat - Same State 1 - Tesla mod - 52]	22.5	74
UGUUCGAGUAGUGAGGAUAUUCAUGGGCCCACAUGAGGAUCACCCAUGUAAUGGACCGGGCCGAAGGAGAAGGCGCGUAAAAUUA [Atceve]	38.2	140
AACUACAUUAUGAAGGAUAUCCACAUCAAGACAUGAGGAUCACCCAUGUAAACUUAGAACAUACAGGAGAAGGUCAAGGGUGAAU [JR_SS002_Sub1206]	234	69.2
UCAAAACAUGAGGAUCACCCAUGUAGCCUAAAGCGAGGAUAUGGGUUUCUUUAAAGAGUACCAGAAGGCGCCAAAA [Enenala]	27.9	91.1
AAAAGACAUGAGGAUCACCCAUGUCAAAAGACAUGAGGAUAUGUACAGACUUCGGUCUGUACAGAAGGCAUGUAAA [SS1 - 1069]	16.3	21.6
AAAAAAAAAGUCGAGGAUAUCCACAUGGUGACAUGAGGAUCACCCAUGUGAAGAAAAGCACAUGAGGAGAAGGCGACAAAAAAAA [Same State 2.7b (Tightrope mod)]	135	1110
GCCUAACAUGAGGAUCACCCAUGUAGUGGGUUGUUAGGAUAUGGACCGCAAAACACGGUACCAGAAGGAAUAGAAA [Tiquleraat]	448	720
AGGAAACAUGAGGAUCACCCAUGUAAAAAUAUGGGAGGAUAUACAAAGACGAAAGUCAAAGUAGAAGGCCUAAAAG [77%, Mat - Mod of Eli, 4]	21.4	60.1
CGUGAACAUGAGGAUCACCCAUGUGAAAAACAUAGAGGAUAUGUCGCGUGAGUGCAAAAGACAGAAGGCUAUCGUG [Mod 4 of Round 1 starryjess' Mod pf Nando]	19.9	35.1
AAUAUAUUAAGUGAGGAUAUCAAGAAAAAAACAUGAGGAUCACCCAUGUGGGAAACACGAUAGGGUGAGAAGGUACUUAAUAUAU [Samwise Clockwise 19 - Jieux - Same State 2]	84.5	42.5
CGGAGACAUGAGGAUCACCCAUGUGAGAAGAGGCGAGGAUAUCGAAAGAAAGAAGAGAAACGAGAAGGCGCGAGAA [salish99-SS1-065]	20.4	32.8

Sequence	apparent KD of MS2 coat protein (MS2 coat protein [1]) [nM]	apparent KD of MS2 coat protein (MS2 coat protein [2]) [nM]
UAAAAACAUGAGGAUCACCCAUGUGAAAAUAUGGGAGGAUAUACAAAGACGAGAGUCAAAGUAGAAGGCCUAAAAU [Mat - Same State 1 - Eli mod - D88]	15.7	115
CAUCAUGCGCCUAAGGAUAUGUCUCACAAGACAUGAGGAUCACCCAUGUAGAACAAAUAAGUGAUGCAGAAGGUGGAGCGCAUGC [Edcequed]	18.9	137
UUCUCCACUAGCAAGGAUAUCUAAAACUAAACAUGAGGAUCACCCAUGUGACGACCACACGUAUCAGAGAAGGUGCAGGGUGUAU [JR_SS002_Sub308]	45.4	42.5
AAUACACAUGGUCAGGAUAUCGCAGCUAGGACAUGAGGAUCACCCAUGUCGCACGUAACCGUAACCGAGAAGGGACAGGGUGACC [JR_SS002_Sub409]	36.9	15.2
GAAAAACAUGAGGAUCACCCAUGUAGAAAUAUGGGAGGAUAUACAAAGACGAAAGUCAAAGUAGAAGGCCUAUAAG [Starry Same State 1.5 (mat747 round 1 mod)]	17.7	33.3
CGCGAACAUGAGGAUCACCCAUGUAAAUCGCAUGUAGGAUAUGGGAUACACAUUAAGAUCCCAGAAGGGCGGAAAA [Leeroner]	23.8	23.5
AGCAUGCGAUAUAAGGAUAUGUUGUUUGCAACAUGAGGAUCACCCAUGUUUGAGGCUGAAAAGCAGCAGAAGGUAUAUACAAGCA [SS2-1.0]	9.45	13
CAGGACGUAGGAUAGGAUAUAUGAAUAAUUACAUGAGGAUCACCCAUGUCCAUUUAUAUGGGAACAUAGAAGGGUUGUGGUUAUG [Mat - Same state - Malcolm Mod - D144]	680	315
ACUACACAUGAGGAUCACCCAUGUCAGGUGGGACUAGGAUAUUAUAAACCAGAGUAAUUAUAAGAAGGAGUAGAAA [JR_SS001_Sub307]	32.6	42.2
CAUAGACAUGAGGAUCACCCAUGUAGAAUUAUGGGAGGAUAUACAAAGACGAGAGUCAGAGUAGAAGGCCUAGGAA [salish99-ss1-160]	20.2	38.6
GGGAGACAUGAGGAUCACCCAUGUGAGAAGAGGCGAGGAUAUCGAAAGAAAGAAGAGAAACGAGAAGGCGCGAGAA [salish99-SS1-049]	37	64.4
AAAUAAAGGACUGAGGAUAUACCACAUGAAACAUGAGGAUCACCCAUGUAGAAAUACAGAGGGUGGUAGAAGGCAGUCCACAAAC [Same State 2.5h ( so lets mod hyphema)]	30.1	57.2
GGAGCCGGCACCGAGGAUAUUCAUAUUAAAACAUGAGGAUCACCCAUGUAGGCCAGAAGGCCUUGGGAGAAGGCGGAUCGGCUCG [Xeonanis]	29.9	481
GGAGCCGGUACUGAGGAUAUUCAUAUUAAAACAUGAGGAUCACCCAUGUAGGCCAGAAGGCCUUGGGAGAAGGCAGAUCGGCUCC [Biceusra]	20.4	266
GAGGACAUAGGAUAGGAUAUAUGAAUAAUUACAUGAGGAUCACCCAUGUCCAUUUAUAUGGGAACAUAGAAGGGUUGUAGUUAUC [SameState2 Malc#34]	1070	683
AAAUAAAGGACUGAGGAUAUACCACAUGAAACAUGAGGAUCACCCAUGUUAAAAAACAGAGGGUGGUAGAAGGCAGUCCACAAAC [Same State 2.5e ( so lets mod hyphema)]	17.9	15.8
AAAUAGUGCCUGGAGGAUAUGUCGCAUGACACAUGAGGAUCACCCAUGUGGUAACACAGAGGGUGGCAGAAGGCUGGGUGCAAAC [Mod 4 of Pariah 6 (Round1) by Hyphema]	27.4	260
AAAGACACAGUGCAGGAUAUAGUAAUAGUCACAUGAGGAUCACCCAUGUUCUUUUAUAAGAACGAUUAGAAGGGCGGUGAAAAAA [SameState2 Malc#11]	161	383
UAACAACAUGAGGAUCACCCAUGUCAAACAAAUCGAGGAUAUGGGCAGGAUUCUUCCUAUCUAGAAGGCGAAAACA [Ricexebi]	145	83.2
AGAAAACAUGAGGAUCACCCAUGUAGAAAUAUGGGAGGAUAUACGAAGACGAAAGUCAAAGUAGAAGGCCUAAAGA [Mat - Same State 1 - Eli mod - D101]	23.6	77.6
AAAAAACAUGAGGAUCACCCAUGUAAAAAAAUGGGAGGAUAUACAAAGACGAAAGUCAAAGUAGAAGGCCUGAAAA [same state 4]	29.8	105
